This data set in a line: in vivo. Set-up: species or system SCID mice. The following applies: SCID, mouse, iv, total radioactivity, accumulation in the tumor. As to the method: Embodiment 3: Radionuclide Labeled D-L2(-B)-L1-A is Used for Animal In Vivo imaging PC-3 human […] adenocarcinoma cells were inoculated into the forelimbs of SCID mice at 4×10^6, and about 3 weeks after inoculation, the radionuclide In-111 labeled D-L2(-B)-L1-A was used to adjust with injection water, and 469-527 μCi of radioactive drugs were intravenously injected into the tail vein, and nano SPECT/CT imaging was performed after administration at 1, 4, 24, 48, 72, and 96 hours, respectively. Nano SPECT/CT was used to track the distribution of radiopharmaceuticals in the animal body at each of the time points after administration, and analysis software was used to enter the image into the semi-definite image to obtain the SPECT value from the test substance with known activity at each of the time points. The linear ratio formula was derived between the SPECT calculated value and the actual activity, and the SPECT calculated value was then used at each target organ circled area to obtain the live/volume of each target organ with interpolation or extrapolation linear formula.
For performing the calculation we assume that every 1 mL of injection dosage is 1 g, and the circled area in the mouse body is 1 g per 1 cm^3. Furthermore, since the activity volume of the administered injection and the weight of the experimental mouse are known, each gram of In-111-D-L2(-B)-L1-A's biological distribution ratio (% ID/g) in each organ can be deduced, and will focus on organ tumor, liver, kidney and muscle into the distribution comparison and obtain ratio, as shown in FIG. 10.

In patent publication US20220089574A1, “CXCR4 gamete molecular structure and method thereof” (priority 2020, published 2022) one finds tissue uptake data, which are given here for three compounds.

Square brackets hold non-standard residues; d marks the D form. Side chains are listed from the residue outwards. Peptide text beside a SMILES is read from it. * marks the point of attachment. DOTA = O=C(O)CN1CCN(CC(=O)O)CCN(CC(=O)*)CCN(CC(=O)O)CC1; dTyr(3-I) = N[C@H](Cc1ccc(O)c(I)c1)C(=O)O; 2Nal = N[C@@H](Cc1ccc2ccccc2c1)C(=O)O; dNMeOrn = CN[C@H](CCCN)C(=O)O; 4Amb = NCc1ccc(C(=O)O)cc1 Where only a bound is given, the exact number is not on record here.

Usually tissue uptake stands for the share of the injected amount in each gram of the tissue. As for `Cc1ccc(CCCC(=O)NCCCC[C@H](NC(=O)CN2CCN(CC(=O)O)CCN(CC(=O)O)CCN(CC(=O)O)CC2)C(=O)NCc2ccc(C(=O)NCCC[C@@H]3C(=O)N[C@@H](CCCNC(=N)N)C(=O)N[C@@H](Cc4ccc5ccccc5c4)C(=O)NCC(=O)N[C@H](Cc4ccc(O)c(I)c4)C(=O)N3C)cc2)cc1` (111In complex, metal not drawn) [I-01(-I-01)-I-01], the tissue uptake at 1 h was found to be 5.47 %ID/g and the tissue uptake at 24 h is greater than 1 %ID/g.

Regarding `Cc1ccc(CCCC(=O)NCCCC[C@H](NC(=O)CN2CCN(CC(=O)O)CCN(CC(=O)O)CCN(CC(=O)O)CC2)C(=O)NCCCCCC(=O)NCCC[C@@H]2C(=O)N[C@@H](CCCNC(=N)N)C(=O)N[C@@H](Cc3ccc4ccccc4c3)C(=O)NCC(=O)N[C@H](Cc3ccc(O)c(I)c3)C(=O)N2C)cc1` (111In complex, metal not drawn) [I-01(-I-01)-I-17], the tissue uptake at 1 h worked out at 7.87 %ID/g and the tissue uptake at 24 h is greater than 1 %ID/g.

As to `CN1C(=O)[C@@H](Cc2ccc(O)c(I)c2)NC(=O)CNC(=O)[C@H](Cc2ccc3ccccc3c2)NC(=O)[C@H](CCCNC(=N)N)NC(=O)[C@H]1CCCNC(=O)c1ccc(CNC(=O)CN2CCN(CC(=O)O)CCN(CC(=O)O)CCN(CC(=O)O)CC2)cc1` [In-111-pentixather, metal not drawn] (cyclo([dTyr(3-I)][dNMeOrn]([4Amb-DOTA])R[2Nal]G)), the tissue uptake at 1 h was 3.24 %ID/g, the tissue uptake at 4 h turned out to be 1.54 %ID/g, the tissue uptake at 48 h was determined as 0.5 %ID/g and the tissue uptake at 72 h was 0.24 %ID/g. In addition, the tissue uptake at 96 h was found to be 0.25 %ID/g.
